Experimental data reported in FireProtDB (doi:10.1021/bi0015717).
“And” between values parts separate entries of the source, which are not always exact repeats. Equal values may be shown once.

B1: Lysozyme C, P61626 (parent)
chain: MKALIVLGLVLLSVTVQGKVFERCELARTLKRLGMDGYRGISLANWMCLAKWESGYNTRATNYNAGDRSTDYGIFQINSRYWCNDGKTPGAVNACHLSCSALLQDNIADAVACAKRVVRDPQGIRAWVAWRNRCQNRDVRQYVQGCGV

Variants of: B1
Settings: Homo sapiens; pH 2.67; Thermal; DSC; glycine-HCl 0.05 M; reversible: yes; structure 1LZ1; whole UniProt chain shown

Row | Variant | Tm | unfolding enthalpy (calorimetric)
1 | V92I | 66.1 °C | 89.9 kcal/mol

Same assay, conditions: Homo sapiens; pH 2.7; 64.9 °C; Thermal; DSC; glycine-HCl 0.05 M; reversible: yes; structure 1LZ1; whole UniProt chain shown

Row | Variant | ddG of mutation (higher = less stable)
2 | V92I | -0.45 kcal/mol
3 | V92F | 0.29 kcal/mol
4 | V128F | 0.05 kcal/mol
5 | V20L | 0.05 kcal/mol
6 | V20F | 0.86 kcal/mol

Same assay, conditions: Homo sapiens; pH 2.7; Thermal; DSC; glycine-HCl 0.05 M; reversible: yes; structure 1LZ1; whole UniProt chain shown

Row | Variant | Tm | change of melting temperature, mutant - wild type (higher = more stable) | heat capacity change of unfolding | unfolding enthalpy (calorimetric)
7 | V92I | 66.6 °C and 64.9 °C | 1.7 °C | 1.2 kcal/mol/K | 88.4 kcal/mol
8 | V92F | 64 °C and 64.9 °C | -0.9 °C | 1.34 kcal/mol/K | 110 kcal/mol
9 | V128F | 64.7 °C and 64.9 °C | -0.2 °C | 1.7 kcal/mol/K | 101 kcal/mol
10 | V20L | 64.5 °C and 64.7 °C and 64.9 °C | -0.2 °C | 1.22 kcal/mol/K | 109 kcal/mol
11 | V20F | 62.2 °C and 64.9 °C | -2.7 °C | 1.63 kcal/mol/K | 110 kcal/mol

Same assay, conditions: Homo sapiens; pH 2.8; Thermal; DSC; glycine-HCl 0.05 M; reversible: yes; structure 1LZ1; whole UniProt chain shown

Row | Variant | Tm | unfolding enthalpy (calorimetric)
12 | V92I | 68.3 °C | 92.5 kcal/mol
13 | V128F | 66.3 °C | 103 kcal/mol

Same assay, conditions: Homo sapiens; pH 3; Thermal; DSC; glycine-HCl 0.05 M; reversible: yes; structure 1LZ1; whole UniProt chain shown

Row | Variant | Tm | unfolding enthalpy (calorimetric)
14 | V92I | 71.7 °C | 96.6 kcal/mol

Same assay, conditions: Homo sapiens; pH 2.68; Thermal; DSC; glycine-HCl 0.05 M; reversible: yes; structure 1LZ1; whole UniProt chain shown

Row | Variant | Tm | unfolding enthalpy (calorimetric)
15 | V92F | 63.6 °C | 108 kcal/mol
16 | V20F | 62 °C | 106 kcal/mol

Same assay, conditions: Homo sapiens; pH 2.84; Thermal; DSC; glycine-HCl 0.05 M; reversible: yes; structure 1LZ1; whole UniProt chain shown

Row | Variant | Tm | unfolding enthalpy (calorimetric)
17 | V92F | 66.3 °C | 112 kcal/mol

Same assay, conditions: Homo sapiens; pH 3.1; Thermal; DSC; glycine-HCl 0.05 M; reversible: yes; structure 1LZ1; whole UniProt chain shown

Row | Variant | Tm | unfolding enthalpy (calorimetric)
18 | V92F | 70.5 °C | 117 kcal/mol

Same assay, conditions: Homo sapiens; pH 3.23; Thermal; DSC; glycine-HCl 0.05 M; reversible: yes; structure 1LZ1; whole UniProt chain shown

Row | Variant | Tm | unfolding enthalpy (calorimetric)
19 | V92F | 72.4 °C | 120 kcal/mol

Same assay, conditions: Homo sapiens; pH 3.4; Thermal; DSC; glycine-HCl 0.05 M; reversible: yes; structure 1LZ1; whole UniProt chain shown

Row | Variant | Tm | unfolding enthalpy (calorimetric)
20 | V92F | 75.6 °C | 124 kcal/mol

Same assay, conditions: Homo sapiens; pH 2.72; Thermal; DSC; glycine-HCl 0.05 M; reversible: yes; structure 1LZ1; whole UniProt chain shown

Row | Variant | Tm | unfolding enthalpy (calorimetric)
21 | V128F | 65.1 °C | 101 kcal/mol

Same assay, conditions: Homo sapiens; pH 3.04; Thermal; DSC; glycine-HCl 0.05 M; reversible: yes; structure 1LZ1; whole UniProt chain shown

Row | Variant | Tm | unfolding enthalpy (calorimetric)
22 | V128F | 70.5 °C | 110 kcal/mol

Same assay, conditions: Homo sapiens; pH 3.05; Thermal; DSC; glycine-HCl 0.05 M; reversible: yes; structure 1LZ1; whole UniProt chain shown

Row | Variant | Tm | unfolding enthalpy (calorimetric)
23 | V20L | 70.4 °C | 116 kcal/mol

Same assay, conditions: Homo sapiens; pH 2.87; Thermal; DSC; glycine-HCl 0.05 M; reversible: yes; structure 1LZ1; whole UniProt chain shown

Row | Variant | Tm | unfolding enthalpy (calorimetric)
24 | V20F | 65 °C | 110 kcal/mol

Same assay, conditions: Homo sapiens; pH 3.09; Thermal; DSC; glycine-HCl 0.05 M; reversible: yes; structure 1LZ1; whole UniProt chain shown

Row | Variant | Tm | unfolding enthalpy (calorimetric)
25 | V20F | 68.6 °C | 116 kcal/mol

Same assay, conditions: Homo sapiens; pH 3.22; Thermal; DSC; glycine-HCl 0.05 M; reversible: yes; structure 1LZ1; whole UniProt chain shown

Row | Variant | Tm | unfolding enthalpy (calorimetric)
26 | V20F | 71.2 °C | 121 kcal/mol
